Laboratory results taken from patent publication US20260193293A1, “PEPTIDES CAPABLE OF INHIBITING PROTEIN-PROTEIN INTERACTIONS AT GABAB1A SUBUNIT AND USES THEREOF” (UNIVERSITY OF COPENHAGEN, priority 2022, published 2026).
Starred links: 1 amine or outer side, 2 acyl side, 3 side chain; linkers in the order of their positions; H or OH if unused. Non-standard residues stand in square brackets, D forms with d. Tyr(Me) = Omtyr, O-methyl-L-tyrosine, COc1ccc(C[C@H](N[*:1])C(=O)[*:2])cc1; Phe(4-tBu) = CC(C)(C)c1ccc(C[C@H](N)C(=O)O)cc1; Phe(4-NH2) = Nc1ccc(C[C@H](N)C(=O)O)cc1; Phe(4-F) = N[C@@H](Cc1ccc(F)cc1)C(=O)O; 1Nal = N[C@@H](Cc1cccc2ccccc12)C(=O)O; 2Nal = N[C@@H](Cc1ccc2ccccc2c1)C(=O)O; 3Pal = N[C@@H](Cc1cccnc1)C(=O)O

B1: R4-21 (peptide)
peptide: Ac-RRRREDDD[2Nal]IDWGPTSDDD-NH2
SMILES: CC[C@H](C)[C@H](NC(=O)[C@H](Cc1ccc2ccccc2c1)NC(=O)[C@H](CC(=O)O)NC(=O)[C@H](CC(=O)O)NC(=O)[C@H](CC(=O)O)NC(=O)[C@H](CCC(=O)O)NC(=O)[C@H](CCCNC(=N)N)NC(=O)[C@H](CCCNC(=N)N)NC(=O)[C@H](CCCNC(=N)N)NC(=O)[C@H](CCCNC(=N)N)NC(C)=O)C(=O)N[C@@H](CC(=O)O)C(=O)N[C@@H](Cc1c[nH]c2ccccc12)C(=O)NCC(=O)N1CCC[C@H]1C(=O)N[C@H](C(=O)N[C@@H](CO)C(=O)N[C@@H](CC(=O)O)C(=O)N[C@@H](CC(=O)O)C(=O)N[C@@H](CC(=O)O)C(N)=O)[C@@H](C)O
B2: RRRR(2Nala)… (peptide)
peptide: Ac-RRRR[2Nal]EDSDDYDDIDDDW-NH2
SMILES: CC[C@H](C)[C@H](NC(=O)[C@H](CC(=O)O)NC(=O)[C@H](CC(=O)O)NC(=O)[C@H](Cc1ccc(O)cc1)NC(=O)[C@H](CC(=O)O)NC(=O)[C@H](CC(=O)O)NC(=O)[C@H](CO)NC(=O)[C@H](CC(=O)O)NC(=O)[C@H](CCC(=O)O)NC(=O)[C@H](Cc1ccc2ccccc2c1)NC(=O)[C@H](CCCNC(=N)N)NC(=O)[C@H](CCCNC(=N)N)NC(=O)[C@H](CCCNC(=N)N)NC(=O)[C@H](CCCNC(=N)N)NC(C)=O)C(=O)N[C@@H](CC(=O)O)C(=O)N[C@@H](CC(=O)O)C(=O)N[C@@H](CC(=O)O)C(=O)N[C@@H](Cc1c[nH]c2ccccc12)C(N)=O
B3: EDDS(3Pal)… (peptide)
peptide: Ac-EDDS[3Pal]VWWGGADTD-NH2
SMILES: CC(=O)N[C@@H](CCC(=O)O)C(=O)N[C@@H](CC(=O)O)C(=O)N[C@@H](CC(=O)O)C(=O)N[C@@H](CO)C(=O)N[C@@H](Cc1cccnc1)C(=O)N[C@H](C(=O)N[C@@H](Cc1c[nH]c2ccccc12)C(=O)N[C@@H](Cc1c[nH]c2ccccc12)C(=O)NCC(=O)NCC(=O)N[C@@H](C)C(=O)N[C@@H](CC(=O)O)C(=O)N[C@H](C(=O)N[C@@H](CC(=O)O)C(N)=O)[C@@H](C)O)C(C)C
B4: EDDS(Omtyr)… (peptide)
peptide: Ac-EDDS[Tyr(Me)]VWWGGADTD-NH2
SMILES: COc1ccc(C[C@H](NC(=O)[C@H](CO)NC(=O)[C@H](CC(=O)O)NC(=O)[C@H](CC(=O)O)NC(=O)[C@H](CCC(=O)O)NC(C)=O)C(=O)N[C@H](C(=O)N[C@@H](Cc2c[nH]c3ccccc23)C(=O)N[C@@H](Cc2c[nH]c3ccccc23)C(=O)NCC(=O)NCC(=O)N[C@@H](C)C(=O)N[C@@H](CC(=O)O)C(=O)N[C@H](C(=O)N[C@@H](CC(=O)O)C(N)=O)[C@@H](C)O)C(C)C)cc1
B5: EDDS(1Nala)… (peptide)
peptide: Ac-EDDS[1Nal]VWWGGADTD-NH2
SMILES: CC(=O)N[C@@H](CCC(=O)O)C(=O)N[C@@H](CC(=O)O)C(=O)N[C@@H](CC(=O)O)C(=O)N[C@@H](CO)C(=O)N[C@@H](Cc1cccc2ccccc12)C(=O)N[C@H](C(=O)N[C@@H](Cc1c[nH]c2ccccc12)C(=O)N[C@@H](Cc1c[nH]c2ccccc12)C(=O)NCC(=O)NCC(=O)N[C@@H](C)C(=O)N[C@@H](CC(=O)O)C(=O)N[C@H](C(=O)N[C@@H](CC(=O)O)C(N)=O)[C@@H](C)O)C(C)C

The binders below were run against Sushi domains (SD1/2) protein of GABAB1a (GB1a) (assay: FP competition vs TAMRA AJAP-1probe).
Sushi domains (SD1/2) protein of GABAB1a (GB1a), sequence (Q9Z0U4 29-158): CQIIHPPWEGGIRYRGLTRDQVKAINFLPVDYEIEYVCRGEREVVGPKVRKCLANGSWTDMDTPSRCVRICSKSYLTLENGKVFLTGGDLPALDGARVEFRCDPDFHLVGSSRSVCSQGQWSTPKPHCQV
With B1 the Ki was 13 nM.
Binder B2 has a Ki of 143000 nM.
For Ac-EDDS[Phe(4-NH2)]VWWGGADTD-NH2 [EDDS(Aphe)…], the Ki was 184 nM.
With B3 the Ki was 373 nM.
Ac-EDDS[Phe(4-F)]VWWGGADTD-NH2 [EDDS(Fphe)…] was tested, and the Ki was 117 nM.
Binder B4 has a Ki of 101 nM.
For Ac-EDDS[Phe(4-tBu)]VWWGGADTD-NH2 [EDDS(Buphe)…], the Ki was 269 nM.
B5 gave a Ki of 69 nM.
